# B1: Bacillus subtilis V11L TRAP (natural protein, UniProt P19466 1-75, looked up)
# chain: MNQKHSSDFVLIKAVEDGVNVIGLTRGTDTKFHHSEKLDKGEVIIAQFTEHTSAIKVRGEALIQTAYGEMKSEKK
# notes: TRAP of Bacillus subtilis with the mutation Val11 to Leu; Homo-12-mer by native mass spectrometry; could not be crystallised; also called V11L mutant; B. subtilis V11L TRAP; source: QuikChange on a pET9a plasmid containing the wild type gene; produced and purified as described previously [10]; copies: 12
# B2: Bacillus subtilis K71stop TRAP (domain or fragment, UniProt P19466 1-71, looked up)
# chain: MNQKHSSDFVVIKAVEDGVNVIGLTRGTDTKFHHSEKLDKGEVIIAQFTEHTSAIKVRGEALIQTAYGEMK
# notes: TRAP of Bacillus subtilis with the last four amino acids removed from the C-terminus (K71stop); Homo-12-mer; also called B. subtilis TRAP K71stop; mutant B. subtilis TRAP; source: QuikChange on a pET9a plasmid containing the wild type gene; produced and purified as described previously [10]; size-exclusion chromatography (Superdex 200); copies: 12
# B3: Bacillus stearothermophilus TRAP, wild type (natural protein, UniProt Q9X6J6 1-74, looked up)
# chain: MYTNSDFVVIKALEDGVNVIGLTRGADTRFHHSEKLDKGEVLIAQFTEHTSAIKVRGKAYIQTRHGVIESEGKK
# notes: Homo-11-mer; control of the native mass spectrometry; also called B. stearothermophilus TRAP; TRAP11; source: pET9a plasmid containing the wild type gene; produced and purified as described previously [10]; copies: 11
# Key:
# [1] = biological target: Bacillus stearothermophilus E71stop TRAP (Bacillus stearothermophilus); assay: native MS; nanoflow electrospray, 100 mM ammonium acetate (pH 7.5), 10 µM L-tryptophan, protein 0.1–0.4 mg/ml
# [2] = biological target: Bacillus stearothermophilus E71stop TRAP (Bacillus stearothermophilus); assay: crystal structure; hanging drop vapor diffusion at 18°C, protein with 5-15 mM L-tryptophan; data at 120 K; ring oligomer built from the asymmetric unit and crystallographic symmetry
# [3] = biological target: Bacillus halodurans trp RNA-binding attenuation protein (TRAP) (Bacillus halodurans); assay: native MS; nanoflow electrospray, 100 mM ammonium acetate (pH 7.5), 10 µM L-tryptophan, protein 0.1–0.4 mg/ml
# [4] = biological target: Bacillus halodurans trp RNA-binding attenuation protein (TRAP) (Bacillus halodurans); assay: crystal structure; hanging drop vapor diffusion at 18°C, protein with 5-15 mM L-tryptophan; data at 120 K; ring oligomer built from the asymmetric unit and crystallographic symmetry
# [5] = biological target: the molecule itself; assay: native MS; nanoflow electrospray, 100 mM ammonium acetate (pH 7.5), 10 µM L-tryptophan, protein 0.1–0.4 mg/ml
# [6] = biological target: the molecule itself; assay: crystal structure; hanging drop vapor diffusion at 18°C, protein with 5-15 mM L-tryptophan; data at 120 K; ring oligomer built from the asymmetric unit and crystallographic symmetry
molecule,measurement,setting,value
Bacillus stearothermophilus E71stop TRAP (domain or fragment),stoichiometry N,[1],12 subunits
same,stoichiometry N,[2],12 subunits
Bacillus halodurans trp RNA-binding attenuation protein (TRAP) (natural protein),stoichiometry N,[3],12 subunits
same,stoichiometry N,[4],12 subunits
B1,stoichiometry N,[5],12 subunits
B2,stoichiometry N,[6],12 subunits
B3,stoichiometry N,[5],11 subunits

# From article PMC3184956, “How to Change the Oligomeric State of a Circular Protein Assembly: Switch from 11-Subunit to 12-Subunit TRAP Suggests a General Mechanism” (PLoS ONE, 2011)
